The record followed here is publication PMC8548206, “Single-domain antibody screening by isPLA-seq” (Life Science Alliance, 2021).

What all share (conditions): partners not purified
The target of one experiment is T1, HA-tagged SQSTM1 (Homo sapiens (Human)., UniProt Q13501).
T1 construct: autophagy receptor SQSTM1, full length; the printed limits 1-440 fit the human protein; also called HA-tagged bait; full length; source: HEK293T, transfected, in fixed cells (screen)
Kind of experiment: proximity ligation; pooled screen (isPLA-seq): Flag-tagged sdAb library co-transfected with HA-tagged SQSTM1 into HEK293T cells, fixed after 48 h, isPLA with anti-HA and anti-Flag antibodies, positive cells sorted by FACS, three rounds, CDR3 sequenced.

In experiment [1] the target is T2, HA-tagged SQSTM1 N-terminal region (1–220 aa) (Homo sapiens (Human)., UniProt Q13501).
T2 construct: SQSTM1, residues 1-220; also called N-terminal region of SQSTM1 (1–220 aa); source: transfected, in cells (isPLA)
Kind of experiment: proximity ligation; single sdAb DNA transfected along with HA-tagged SQSTM1 or its truncations; isPLA with anti-HA and anti-Flag antibodies 48 h after transfection.

Experiment [2] deals with T3, HA-tagged SQSTM1 C-terminal region (221–440 aa) (Homo sapiens (Human)., UniProt Q13501).
T3 construct: also called C-terminal SQSTM1; source: transfected, in cells (isPLA, co-IP)
Described as above.

B1: Flag-tagged anti-SQSTM1 sdAb clone #1 (VHH)
VHH: QVQLVESGGGSVQAGGSLRLSCTASGGSEYSYSTFSLGWFRQAPGQEREAVAAIASMGGLTYYADSVKGRFTISRDNAKNTVTLQMNNLKPEDTAIYYCAAEGLVYWTTKKSFGGCLLHDWSWGQGTQVTVSS
notes: 21-aa CDR3 in place of the CDR3 of cAbBCII10; also called anti-SQSTM1 clone #1; sdAb #1; source: HEK293T, transfected (sdAb library in pcDNA3.1), in fixed cells; not shown: 3x Flag, C-terminal, kept
As to B1, the results for the binding result (in the experiment with HA-tagged SQSTM1; in experiment [1]; in experiment [2]) were “binds”, “no binding” and “binds”, respectively.
